From the Human Domainome abundance scans (Beltran et al. 2025)
± gives the uncertainty stated by the source.

B1: Metastasis-associated protein MTA3, residues 265 to 317; numbered along this chain, Q9BTC8 (parent)
chain: RDEMEEWSASEASLFEEALEKYGKDFNDIRQDFLPWKSLTSIIEYYYMWKTTD

Variants of: B1
Assay: abundance fitness (aPCA) (normalised: wild type 0, dead -1); higher = more abundant; growth selection in yeast, the domain comes from the species named
Conditions: Homo sapiens

| Variant | abundance fitness |
| --- | --- |
| SDEMEEWSASEASLFEEALEKYGKDFNDIRQDFLPWKSLTSIIEYYYMWKTTD [R1S] | -0.259 ± 0.2 |
| RDEMEECSASEASLFEEALEKYGKDFNDIRQDFLPWKSLTSIIEYYYMWKTTD [W7C] | -0.952 ± 0.13 |
| RDEMEEESASEASLFEEALEKYGKDFNDIRQDFLPWKSLTSIIEYYYMWKTTD [W7E] | -0.925 ± 0.33 |
| RDEMEESSASEASLFEEALEKYGKDFNDIRQDFLPWKSLTSIIEYYYMWKTTD [W7S] | -0.777 ± 0.11 |
| RDEMEEVSASEASLFEEALEKYGKDFNDIRQDFLPWKSLTSIIEYYYMWKTTD [W7V] | -0.979 ± 0.14 |
| RDEMEEYSASEASLFEEALEKYGKDFNDIRQDFLPWKSLTSIIEYYYMWKTTD [W7Y] | -0.496 ± 0.19 |
| RDEMEEWSASEASLFEEALEKYGYDFNDIRQDFLPWKSLTSIIEYYYMWKTTD [K24Y] | -0.331 ± 0.18 |
| RDEMEEWSASEASLFEEALEKYGRDFNDIRQDFLPWKSLTSIIEYYYMWKTTD [K24R] | -0.151 ± 0.094 |
| RDEMEEWSASEASLFEEALEKYGWDFNDIRQDFLPWKSLTSIIEYYYMWKTTD [K24W] | -0.935 ± 0.38 |
| RDEMEEWSASEASLFEEALEKYGHDFNDIRQDFLPWKSLTSIIEYYYMWKTTD [K24H] | -0.362 ± 0.08 |
| RDEMEEWSASEASLFEEALEKYGIDFNDIRQDFLPWKSLTSIIEYYYMWKTTD [K24I] | -0.536 ± 0.17 |
| RDEMEEWSASEASLFEEALTKYGKDFNDIRQDFLPWKSLTSIIEYYYMWKTTD [E20T] | -0.262 ± 0.077 |
| RDEMEEWSASEASLFEEALEKYGKDFNDIRQDFLPWKSLTSPIEYYYMWKTTD [I42P] | -0.798 ± 0.16 |
| RDEMEEWSASEASLFEEALEKYGKDFNDIRQDFLPWKSLTSCIEYYYMWKTTD [I42C] | -0.711 ± 0.13 |
| RDEMEEWSASEAELFEEALEKYGKDFNDIRQDFLPWKSLTSIIEYYYMWKTTD [S13E] | 0.158 ± 0.11 |
| RDEMELWSASEASLFEEALEKYGKDFNDIRQDFLPWKSLTSIIEYYYMWKTTD [E6L] | -0.757 ± 0.24 |
| RDEMEFWSASEASLFEEALEKYGKDFNDIRQDFLPWKSLTSIIEYYYMWKTTD [E6F] | -0.159 ± 0.37 |
| RDEMEVWSASEASLFEEALEKYGKDFNDIRQDFLPWKSLTSIIEYYYMWKTTD [E6V] | 0.443 ± 0.2 |
| RDEMEEWSASEASLFEEALEKYGKDFNDIRQDFLPWKMLTSIIEYYYMWKTTD [S38M] | -0.159 ± 0.17 |
| RDEMEEWSASEASLFEEALEKYGKDFNDIRQDFLPWKSLTSIIEYSYMWKTTD [Y46S] | -0.457 ± 0.2 |
| RDEMEEWSASEASLFEEALEKYGKDFNDIRQDFLPWKSLTSIIEYLYMWKTTD [Y46L] | -0.851 ± 0.39 |
| RDEMEEWSGSEASLFEEALEKYGKDFNDIRQDFLPWKSLTSIIEYYYMWKTTD [A9G] | -0.714 ± 0.19 |
| RDEMEEWSTSEASLFEEALEKYGKDFNDIRQDFLPWKSLTSIIEYYYMWKTTD [A9T] | -0.332 ± 0.09 |
| RDEMEEWSASEASLFEEALEKYGKDFNDIRQDFLPWKSLTSIVEYYYMWKTTD [I43V] | -0.381 ± 0.12 |
| RDEMKEWSASEASLFEEALEKYGKDFNDIRQDFLPWKSLTSIIEYYYMWKTTD [E5K] | -0.031 ± 0.16 |

| Variant | abundance fitness |
| --- | --- |
| RDEMYEWSASEASLFEEALEKYGKDFNDIRQDFLPWKSLTSIIEYYYMWKTTD [E5Y] | -0.042 ± 0.47 |
| RDEMQEWSASEASLFEEALEKYGKDFNDIRQDFLPWKSLTSIIEYYYMWKTTD [E5Q] | -0.347 ± 0.46 |
| RDEMEEWSASEASLFEEALEKYGKDFNDIRQDFLPWKSLTSIIEYYGMWKTTD [Y47G] | 0.027 ± 0.077 |
| RDEMEEWSASEASLFEEALEKYGKDFNDIRQDFLPWKSLTSIIEYYWMWKTTD [Y47W] | -0.174 ± 0.15 |
| RDEMEEWSASEASLFEEAWEKYGKDFNDIRQDFLPWKSLTSIIEYYYMWKTTD [L19W] | 0.043 ± 0.12 |
| RDEMEEWSASEASLFEEASEKYGKDFNDIRQDFLPWKSLTSIIEYYYMWKTTD [L19S] | -0.722 ± 0.11 |
| RDEMEEWSASEASLFEEALEKYGKDFNDIRQDFLPWKSLTSIIEYYYCWKTTD [M48C] | -0.086 ± 0.075 |
| RDEMEEWSASEASLFEEALEKYGKDFNDIRQDFLPWKSLTSIIEYYYTWKTTD [M48T] | -0.103 ± 0.21 |
| RDEMEEWSASEASLFEEALEKYGKDFWDIRQDFLPWKSLTSIIEYYYMWKTTD [N27W] | -0.635 ± 0.27 |
| RDEMEEWSASEASLFEEALEIYGKDFNDIRQDFLPWKSLTSIIEYYYMWKTTD [K21I] | -0.418 ± 0.22 |
| RDEMEEWSASEASLFEEALESYGKDFNDIRQDFLPWKSLTSIIEYYYMWKTTD [K21S] | -0.745 ± 0.083 |
| RDEMEEWSASEASLFEEALEMYGKDFNDIRQDFLPWKSLTSIIEYYYMWKTTD [K21M] | -0.763 ± 0.18 |
| RDEDEEWSASEASLFEEALEKYGKDFNDIRQDFLPWKSLTSIIEYYYMWKTTD [M4D] | -0.554 ± 0.21 |
| RDEQEEWSASEASLFEEALEKYGKDFNDIRQDFLPWKSLTSIIEYYYMWKTTD [M4Q] | -0.885 ± 0.35 |
| RDEVEEWSASEASLFEEALEKYGKDFNDIRQDFLPWKSLTSIIEYYYMWKTTD [M4V] | -0.422 ± 0.19 |
| RDETEEWSASEASLFEEALEKYGKDFNDIRQDFLPWKSLTSIIEYYYMWKTTD [M4T] | -0.481 ± 0.18 |
| RDEMEEWSASEASLFEEALEKYGKDFNDIRQDFLPWKSLTSIIDYYYMWKTTD [E44D] | -0.145 ± 0.15 |
| RDEMEEWSAYEASLFEEALEKYGKDFNDIRQDFLPWKSLTSIIEYYYMWKTTD [S10Y] | -0.158 ± 0.083 |
| RDEMEEWSASKASLFEEALEKYGKDFNDIRQDFLPWKSLTSIIEYYYMWKTTD [E11K] | -0.562 ± 0.11 |
| RDEMEEWSASMASLFEEALEKYGKDFNDIRQDFLPWKSLTSIIEYYYMWKTTD [E11M] | 0.052 ± 0.11 |
| RDEMEEWSASSASLFEEALEKYGKDFNDIRQDFLPWKSLTSIIEYYYMWKTTD [E11S] | -0.883 ± 0.11 |
| RDEMEEWSASFASLFEEALEKYGKDFNDIRQDFLPWKSLTSIIEYYYMWKTTD [E11F] | -0.87 ± 0.087 |
| RDEMEEWSASCASLFEEALEKYGKDFNDIRQDFLPWKSLTSIIEYYYMWKTTD [E11C] | -0.818 ± 0.21 |
| RDEMEEWSASNASLFEEALEKYGKDFNDIRQDFLPWKSLTSIIEYYYMWKTTD [E11N] | -0.91 ± 0.2 |
| RDEMEEWSASEASLFEEALEKYGKDFNDIRQDFLPWKSLTSIIEYYYMWKTSD [T52S] | -0.032 ± 0.071 |
